Data published in the nanobody polyreactivity screen of Harvey et al. (2022).

Experiment: yeast display, Sf9 membrane polyspecificity reagent, FACS + sequencing; frameworks hold sequencing errors
Outline: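 Nanobodies came from a synthetic yeast display library in Saccharomyces cerevisiae BJ5465, induced with galactose for 36–48 hours and stained for 1 hour at 4 °C with 10% biotinylated, detergent-solubilized Sf9 membrane reagent. Cells were enriched on streptavidin microbeads and then FACS-sorted, with low and high (top ~1%) gates set on anti-HA fluorescence for expression and streptavidin fluorescence for reagent binding. Each polyreactivity label reflects the gate a clone came from. Genes were amplified by colony PCR, sequenced by MiSeq 2 × 250 and filtered by CDR length.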

Sequence	polyreactivity (PSR sort gate)
QVQLVESGGGLVQAGGSLRLSCAASGRIFRAYTMGWYRQAPGKARELVAAISRSTGSTNYADSVKGRFTISRDNAKNTVYLQMNSLKPEDTAVYFCNARSRWYLVGQQSTRLDYWGQGTQVTVSS	high polyreactivity
QVQLVESGGGLVQAGGSLRLSCAASGSIFYRNGMGWYRQAPGKERELVAAISGRGGSTNYADSVKGRFTISRDNAKNTVYLQMNSLKPEDTAVYYCNRYGVSNILVRGGYWGQGTQVTVSS	high polyreactivity
QVQLVESGGGLVQAGGSLRLSCAASGSIFTLYARGWYREAPGKERELVAAITWTGGSTYYADSVKGRFTISRDNAKNTVYLQMNSLKPEDTAVYYCATDAYWQSNGAFYYVARHGGYWGQGTQVTVSS	low polyreactivity
QVQLVESGGGLVQAGGSLRLSCAASGRIFEPYTMGWYRQAPGKEREFVATITASGDSTYYADSVKGRFTISRDNAKNTVFLQMNSLKPEDTAVYYCAAAPFGGYEYDYWGQGTQVTVSS	high polyreactivity
QVQLVESGGGLVQAGGSLRLSCAASGITSHPYDMGWYRQAPGKERELVAVITSGGSTSYADSVKGRFTISRDNAKNTVYLQMNSLKPEDTAVYYCNADSWYAWYSYGYDYWGQGTQVTVSS	low polyreactivity
QVQLVESGGGLVQAGGSLRLSCAASGSIFQYVYAMGWYRQAPGKERELVATITWSGGTTYYADSVKGRFTISRDNAKNTVYLQMHSLKPEDTADYYCAAESIYYPVAQYYYSFEYWGQGTQVTVSS	low polyreactivity
QVQLVESGGVLVQAGGSLRLSCAPSGRIFNYYAMGWYRQAPGKERELVAAISSSGGRTYYADSVKGRFTISRDNAKNTVYLQMNSLKPEDTAVYYCAAYDSLRYSTYDYWGQGTQVTVSS	high polyreactivity
QVQLVESGGGLVQAGGSLRLSCAASGRIFRRYAMGWYRQAPGKERELVAAISVTGGRTYYADSVKGRFTISRDNAKNTVYLQMNSLKPEDTAVYYCNTLQYQERYAYDYWGQGTQVTVSS	high polyreactivity
QVQLVESGGGLVQAGGSLRLSCAASGSTFDIYAMGWYRQAPGKERELVAAITFSGGSTYYADSVKGRFTISRDNAKNTVYLQMNSLKPEDTAVDYCAARNDYYKTFSGYDYWGQGTQVTVSS	low polyreactivity
QVQLVESGGGLVQAGGSLRLSCAASGRIFVPYVMGWYRQAPGKERELVASISDSDTSTYYADSVKGRFTISRDNAKNTVYLQMNSLKPEDSAVYYCNVDYWGQGTQVTVSS	low polyreactivity
QVQLVESGGGLVQAGGSLRLSCAACGRTFYNYAMGWYRQAPGKERELVAAITRGGSTYYADSVKGRFTISRDNAKNTVYLQMNSLKPEDTAVYYCNAVFPYEHEEYDYWGQGTQVTVSS	high polyreactivity
QVQLVESGGGLVQAGGSLRLSCAASGNIFVWNDMGWYRQAPGKERELVAAISLSGSSTYYADSVKGRFTISRDNAKNTVYLQMNSLKPEDTAVYYCATTRRVPGEYWGQGTQVTVSS	high polyreactivity
QVQLVESGGGLVQAGGSLRLSCAASGYTFEVYAMGWYRQAPGKERELVADITTRTGNTYYADSVKGRFTISRDNAKNTVYLQMNSLKPEDTAVYYCAADLQRYWWWYEYWGQGTQVTVSS	high polyreactivity
QVQLVESGGGLVQAGGSLRLSCAPSGFIYSKYVIGWNRPAPGKERELVAAITRSGSSTYYADSVKGRFTISRDNAKNTDYLQMNSLKPEDTAVYYCAADGGYYDDDYWGQGTQVTVSS	high polyreactivity
QVQLLESGGGLVQAGGSLRLSCAASGRSYCNNVMGWYRQEPGKERELVAAITFSGTSTYYADSVKVRFTISRDNAKNTVYLQMNSLKPEDTAVYYCAKYRYADYYSPCYDYWGQGTQVTVSS	low polyreactivity
QVQLVESGGGLVQAGGSLRLSCAASGSTFQWYVMGWYRQAPGKERELVAAITWSGGSTYYADSVKGRFTISRDNAKNTVYLQMNSLKPEDTAVYYCNAVFWIWNAGYDYWGQGTQVTVSS	low polyreactivity
QVQLVESGGGLDQAGGSLRLSCAASGSTFTKNVMGWYRQAPGKERELVAAISSGGRTNYADSVKGRFTISRDNAKNTVYLQMNSLKPEDTAVYFCAADVGYFKSDYWGQGTQVTVSS	low polyreactivity
QVQLVESGGGLVQAGGSLRLSWAASGFTFKYYDMGWYRLAPGQERELVAAIDTSGGNTYYADSVKGRFTISRDNAKNTGYVQMNSLKPEETAVDYCAATVPYYHDDYWGQGTQVTVSS	low polyreactivity
QDQLVESGGGLVQAGGSLRLSCAASGSTFWFYAMGWSRQAPGKEWELVAVISNSGSTYYADSVKGRFTISRDNAKNTVYLQLNSLKPEDTAVYYCNTDGGGDSYWYDYWGQGTQVTVSS	low polyreactivity
QVQLEESGGGLVQAGGSLRLSCAASGSMFTRYAKGWYRQAPWKERELVAAISTSGGSTYYADSVKGRFTISRDNAKNTVYLQMTSLKPEDTAVYYCAADDQRRSGYYSWGQGTQVTVSS	high polyreactivity
QVQLVESGGGLVQAVGRLRLSCAASGSTFAIYAMGWYRQAPGKERELVAAITVSGGSTYYADSVKGRFTISRDNAKNTVYLQMNSLKPEDTAVYYCNADWSGWQGWYNYWGQGTQVTVSS	low polyreactivity
QVQLEESGGGLVQAGGSLRLSCAASGFTFTYYAMGWYRQAPGKERELVASISYSGGSTYYADSVKGRFTISRDNAKNTVYLQMNSLKPEDTAVYYGAARTRHVHYGYWGQVTQVTVSS	high polyreactivity

Sequence	polyreactivity (PSR sort gate)
QVQLVESGGGLVQAGGSLRLSCAASGFTIFEDNAMGSYRQAPGKERELVAAITSGGSTNYADSVKGRFTISRDNAKNTVYLQMNSLKPEDTAVYYCAYDRVPLKTRFYYFPWGYDYWGQGTQVTVSS	low polyreactivity
QVQLVESGGGLVQAGGSLRLSCAASGSIFRIYAMGWYRQAPGKERELVAAISWSGGSTYYADSVKGRFTISRDNANNTVYLQMNSRKPEDTAVYYCAARPRYKYSAYEYWGQGTQVTVSS	high polyreactivity
QVQLVESGGGLVQAGGSLRLSCASSGSTFVSYVMGWYRQAPGKERELVARITISSGSTRYADSVKGRFTISRDNAKNTVYLQMNSLKPEDTAVSYCAVDAVDAFVFLSWDYDYWGQGTQVTVSS	low polyreactivity
QVQLVESGGGLDQAGGSLRLSCAAYGITFGYYAMGWYRQAPGKERELVASITTRGGSTSYADSVKGRFTISRDNAKNTVYLQMNSLKPEDTAVYYCAARWRQRKSVRYGQQGYDYWGQGTQVTVSS	high polyreactivity
QVQLVESGGGLVQAGGSLRLSCAASGFIIIGYVMGWYRQSPGKERELVAAITSSVGSTYYADSVKGRFTISRDNAKNPVYLQMNSLKPEDTAVYYCAAEYYLLWSGMEYWGEGTQVTVSS	low polyreactivity
QVQLVESGGGLVHAGGSLRLSCAASGSIFAYYAMGWYRQAPGKERELVARITYSTDGTYYADSVKGRFTISRDNAKNTVYLQMNSLKPEDTAVYFCAVDTWWGFKRYKFDYWGQGTQVTVSS	low polyreactivity
QVQLVESGGGLVQAGGSLRLSCAASGRTLATYAMGWYRQAPGKERELVAAISTSGTRTYYADSVKGRFTISRDNAKNTVYLQMNSLKPEDTAVYYCNAGPGYDYWGHGTQVTVSS	high polyreactivity
QVQLVESGGGLVQAGGSLRLSCAASGGTFAVNVMGWYRQAPGKERELVAAITSNGGSTYYADSVKGRFTISRDNAKNTVYLQMNSLTPEDTAVYYCAAEGSGWYTGHYYYWGQGTQVTVSS	low polyreactivity
QVQLEESGGGLVQAGGSLRLSCAASGLTFGDYTMGWYRQAPWKERELVAAITSRGGRTYYADSVKGRFTISRDNAKNTVYLQMNSLTPEDTAVYYCAADDLRIKRVGFDYWGQGTQVTVSS	high polyreactivity
QVQLVESGGGLVQAGGSLRLSCAASGRIFAHYAMGWYRQAPGKEREMVAAISRRGGSTYYAESVKGRFTISRDNAKNTVYLQMNRLKPEDTAVYYCNAVTRSSLSWFFGYDYWGQGTQVTVSS	high polyreactivity
QVQLLESGGGLVQAGGSHRLSCASSGRTFSRYAMGWYRQAPGKERELVAAISYSGGSTYADSVKGRFTISRDNAKNTVYLQMIRLKPEDTAVYYCAAEKYVYWFSYQYGYWGQGTQVSVSS	high polyreactivity
QVQLVESGGVLVQAGGSLRLSCAASGRIFQTYAMGWYRQAPGKERELVAAISSRGRTYYADSVKGRFTISRDNAKITVYLQMNSLKREDTAVYYCAARDWSHRPRGYDYWGQGTQVTVSS	high polyreactivity
QVQLVESGGGLVQAGGSLRLSCAASGRTLLANAMGWYRQAPGKARELVAAITWTGGRTNYADSVKGRFTISRDNAKNTVYLQMNSLKPEDTAVYYCAADIFYEQVVGGTDVGYHDFDYWGQGTQVTVSS	low polyreactivity
QVQLVESGGGLVQAGGSLRLSCAASGRIFDANAMGWYRQAPGKERELVAANSRRGGRTYYADSVKGRFTISRDNAKNTVYLQMNSLKPEDTAVYYCARVPTRAEDVAGWTGMDYWGQGTQVTVSS	high polyreactivity
QVQLVESGGGLVQAGGSLRLSCAASGYIFGVYAMGWYRQAPGKERELVARITSGGSTNYADSVKGRFTISRDNAKNTVYLQMNSLKPEDTAVYYCAAAVGNTDREYDYWGQGTQVTVSS	low polyreactivity
QVQLVESGGGLVQAGGSLRLSCAASGRIFDYNAMGWYRQAPAKERELVAAITWSGGSTHYADSVKGRFTISRDNAKNTVYLQMKSLKPEDTAVYYCAADIGGDYLVFYYRGGYDYWGQGNQVTVSS	low polyreactivity
QVQLVESGGGLVQAGGSLRLSCAASGSIFNGYAMGWYRQSPGKERELVAVISGSGGSTYYADSVKGRFTISRDNAKNTVYLQMNSLKPEDTAVYYCAAKPGYYGYWGQGTQVTVSS	high polyreactivity
QVQLVESGGGLVQAGGSLRLSCAASGSTFRSNAMGWYRQAPGKERELVASINWSGDSTYYADSVKGRFTISRDNAKNTVYLQMNSLKPEDTAVYYCNAVVDTTEYPYEYDYWGQGTQVTVSS	low polyreactivity
QVQLVESGGGLFQAGGSLRISCAASGGTFFRYAMGWYRQAPGKERELVAAITWSSGSTYYADSVKGRFTISRDNAKNTGYLQMNSLKPEDTAVYYYDYYTYGDYWGQGTEVTVSS	low polyreactivity
QVQLVESGGGLVQAGGSLRLSCAASGYTFPLYAMGLYRQAPGKEWELVADINIGGASTYYADSVKGRFTISRDHAKNTVYLQMNSLKPEDTAVYYCAKEYYDGYFPTFDYDYWGQGTQVTGSS	low polyreactivity
QVQLVETGGGLVQAGGSLRLSCAASGSIFFDYAKGWSRQAPGKERELVAAIRWSGGRTSYADSVKGRFTISRDNAKNSVYLQMNSVKPEDTAVYYCSARWNRVRYGFDYWGQGTQVTVSS	high polyreactivity
